The values below come from US7317096 (LEADD B V, dated 2008).

The data set deals with the molecule itself. The data set can be described thus: size exclusion chromatography (Superose 6 HR 10/30).

B1: MBP-AAP-1 fusion protein (pMAL-AAP-1) (other, not shown: large carriers)
chain: MTMGDKKSPTRPKRQAKPAADEGFWDCSVCTFRNSAEAFKCSICDVRKGTSTRKPRINSQLVAQQVAQQYATPPPPKKEKKEKVEKQDKEKPEKDKEISPSVTKKNTNKKTKPKSDILKDPPSEANSIQSANATTKTSETNHTSRPRLKNVDRSTAQQLAVTVGNVTVIITDFKEKTRSSSTSSSTVTSSAGSEQQNQSSSGSESTDKGSSRSSTPKGDMSAVNDESF
notes: Produced in E. coli, 90 to 95% pure; Printed as 'a Homotrimer or Homo-tetramer'; also called MBP-AAPI
For B1, the binding result was “binds”.
